Experiments:
Test in all cases: affinity HPLC, POROS AAVX resin, linear pH gradient 4.5 to 2.2, AAV2 peak top
[1] = target: AAV2 G383A (adeno-associated virus serotype 2 (AAV2)) (UniProt P03135)
[2] = target: AAV2 Q385A (adeno-associated virus serotype 2 (AAV2)) (UniProt P03135)
[3] = target: AAV2 S384A (adeno-associated virus serotype 2 (AAV2)) (UniProt P03135)
[4] = target: AAV2 N382A (adeno-associated virus serotype 2 (AAV2)) (UniProt P03135)
[5] = target: AAV2 S264A (adeno-associated virus serotype 2 (AAV2)) (UniProt P03135)
[6] = target: AAV2 (wild type), serotype 2 AAV with capsid region VP1 of SEQ ID NO: 99 (adeno-associated virus serotype 2 (AAV2)) (UniProt P03135)
[7] = target: AAV2 D529A (adeno-associated virus serotype 2 (AAV2)) (UniProt P03135)
[8] = target: AAV2 H271A (adeno-associated virus serotype 2 (AAV2)) (UniProt P03135)
[9] = target: AAV2 D528A (adeno-associated virus serotype 2 (AAV2)) (UniProt P03135)
[10] = target: AAV2 S267A (adeno-associated virus serotype 2 (AAV2)) (UniProt P03135)

Substance: POROS Capture Select AAVX Affinity Resin (manufactured by Thermo Fisher Scientific)
- AAVX column elution time [1]: 48.1 min
- AAVX column elution time [2]: 47.9 min
- AAVX column elution time [3]: 48 min
- AAVX column elution time [4]: 47.9 min
- AAVX column elution time [5]: 48 min
- AAVX column elution time [6]: 48.2 min
- AAVX column elution time [7]: 47.8 min
- AAVX column elution time [8]: 48.2 min
- AAVX column elution time [9]: 47.8 min
- AAVX column elution time [10]: 48 min
